The results in this text go back to patent publication US20060140970A1, “Proteic binding partners of TCTP and methods of modulating tumor reversion or cell apoptosis” (priority 2003, published 2006).

Like-named read-outs stand apart in the source and are kept apart here.

Data set [1] relates to bovine brain tubulin. Kind of data set: In vitro tubulin polymerization assay (absorbance at 340 nm). The note with it: 3 μg purified protein, 2 mg/ml tubulin, 32° C. It counts as biochemical. The protocol: In vitro tubulin polymerization assays. Pure bovine brain tubulin protein was reconstituted at a final concentration of 10 mg/ml in cold G-PEM buffer (80 mM Piperazine-N,N′-bis-[2-ethanesulfonic acid] equisodium salt (PIPES), 0.5 mM magnesium chloride (MgCl2), 1 mM ethylene glycol-bis-(b-amino-ethyl ether)-N,N,N′,N′-tetra-acetic acid (EGTA), 1 mM Guanosine 5′-triphosphate (GTP), pH 6.9). Samples of 2 mg/ml tubulin in G-PEM buffer were incubated either with 3 μg of ovalbumin (negative control), with 3 μg of purified recombinant TCTP protein, or with […] of purified recombinant OP18 protein. Then, the samples were placed in quartz cuvettes and incubated at 32° C. Tubulin polymerization was observed by measuring the absorbance of the solution at 340 nm over time.
Since TCTP exerts tubulin and microtubules binding properties (Gachet et al., J. Cell Sci., 1 12(Pt 8): 1257-1271 (1999)), whether TCTP could directly regulate the microtubule dynamics was investigated. An in vitro tubulin polymerization assay, using purified tubulin, was developed. […] In the presence of 3 μg of purified OP18 from E. Coil, the polymerization of tubulin was abolished.

For data set [2], the target named is T1, eEF1A (eEF1Bαγ-mediated GDP exchange) (Oryctolagus cuniculus, UniProt P68105).
T1 construct: Rabbit liver eEF1A was purified as described in Shalak et al; from tissue; host or cells: rabbit liver (eEF1A only)
T1 sequence (P68105 2-462 limits assumed): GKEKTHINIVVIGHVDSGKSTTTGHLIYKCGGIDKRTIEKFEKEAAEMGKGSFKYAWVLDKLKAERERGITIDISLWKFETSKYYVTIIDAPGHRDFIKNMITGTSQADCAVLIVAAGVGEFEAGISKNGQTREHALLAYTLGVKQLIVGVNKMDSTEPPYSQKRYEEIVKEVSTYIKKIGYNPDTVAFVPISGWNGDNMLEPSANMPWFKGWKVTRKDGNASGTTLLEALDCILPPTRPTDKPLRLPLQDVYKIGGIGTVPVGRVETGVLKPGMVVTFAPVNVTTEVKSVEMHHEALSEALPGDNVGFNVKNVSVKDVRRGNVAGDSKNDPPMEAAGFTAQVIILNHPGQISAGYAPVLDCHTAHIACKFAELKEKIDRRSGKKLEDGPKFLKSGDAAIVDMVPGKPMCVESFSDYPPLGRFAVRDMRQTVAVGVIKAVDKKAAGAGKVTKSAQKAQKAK
The experiment in a line: eEF1Bαγ-mediated GDP exchange on eEF1A. The note with it: TCTP at a final concentration of 2 μM. It is filed as biochemical, rabbit. On the procedure: (§1) Guanine nucleotide exchange assay. Rabbit liver eEF1A was purified as described in Shalak et al., Ukr Biokhim Zh, 69: 104-9 (1997), incorporated herein by reference. The guanine nucleotide exchange on eEF1A was monitored as described in Negrutskii et al., J Biol Chem, 274: 4545-50 (1999) and Bec et al., J Biol Chem, 269: 2086-92 (1994), both of which are incorporated herein by reference. The eEF1A-[^3H]GDP complex was prepared following incubation of 4 μM eEF1A with 4 μM [^3H]GDP (Amersham Biosciences; 1500 Ci/mol) in 80 μl of 45 mM Tris-HCl (pH 7.5) containing 0.5 mM DTT, 10 mM magnesium acetate, 100 mM NH4Cl, 1 mg/ml bovine serum albumin and 25% glycerol for 5 minutes at 37° C. The reaction mixture was placed on ice and diluted by addition of 640 μl of ice-cold exchange buffer [20 mM Tris-HCl (pH 7.5), 10 mM magnesium acetate, 50 mM NH4Cl, 10% glycerol]. The exchange reaction was conducted at 0° C. after addition of 160 μl of exchange buffer containing nucleotide and specified exchange factors. Aliquots of 100 μl were taken at times indicated and immediately filtered through nitrocellulose filters (Millipore; pore size 0.45 μm). Filters were washed 3 times with 1 ml of ice-cold washing buffer [20 mM Tris-HCl (pH 7.5), 10 mM magnesium acetate, 100 mM NH4Cl, 0.1 mg/ml bovine serum albumin], dried and counted in a liquid scintillator. […]

The target of data set [3] is T2, eEF1A (eEF1Bβ-mediated GDP exchange) (Oryctolagus cuniculus, UniProt P68105).
T2 construct: Rabbit liver eEF1A was purified as described in Shalak et al; Full-length TCTP, eEF1Bβ and NKTR cDNAs were cloned in-frame into pGEX-6P; GST (N, cleaved yes); made in house; host or cells: eEF1Bβ: E. coli BL21DE3; eEF1A: purified from rabbit liver
T2 sequence (P68105 2-462 limits assumed): T1 sequence (P68105 2-462 limits assumed)
The experiment in a line: eEF1Bβ-mediated GDP exchange on eEF1A. It counts as biochemical, rabbit. The note with it: TCTP at a final concentration of 2 μM; simple first-order. On the procedure: as §1

Data set [4] deals with Arf1-GAP / [D17]ARF1 (Homo sapiens, UniProt P84077). Kind of data set: GTP-GDP exchange activity of Arf1-GAP on [D17]ARF1, tryptophan fluorescence. It is filed as biochemical. Conditions: 30 uM TCTP, 0.5 uM [D17]ARF1-GDP, 100 uM Arf-GAP; presence vs absence of TCTP. The protocol: Into a buffer containing 1 mM free Mg^2+, 30 uM TCTP and 0.5 uM [D17]ARF1 -GDP were added. The reaction was initiated by the addition of 40 uM GTP and 2 mM EDTA. To stop the reaction, 2 mM MgCl2 was added. The Arf-GAP, at a concentration of 100 uM, was added. The reaction was measured in presence and absence of TCTP. […] In particular, it is shown that TCTP inhibits the GTP-GDP exchange catalyzed by Arf1-GAP, implicating that Arf1 is kept in its active conformation in presence of TCTP.

The target in data set [5] is T3, eEF1A (Oryctolagus cuniculus, UniProt P68105).
T3 construct: Rabbit liver eEF1A was purified as described in Shalak et al; from tissue; host or cells: rabbit liver
T3 sequence (P68105 1-462): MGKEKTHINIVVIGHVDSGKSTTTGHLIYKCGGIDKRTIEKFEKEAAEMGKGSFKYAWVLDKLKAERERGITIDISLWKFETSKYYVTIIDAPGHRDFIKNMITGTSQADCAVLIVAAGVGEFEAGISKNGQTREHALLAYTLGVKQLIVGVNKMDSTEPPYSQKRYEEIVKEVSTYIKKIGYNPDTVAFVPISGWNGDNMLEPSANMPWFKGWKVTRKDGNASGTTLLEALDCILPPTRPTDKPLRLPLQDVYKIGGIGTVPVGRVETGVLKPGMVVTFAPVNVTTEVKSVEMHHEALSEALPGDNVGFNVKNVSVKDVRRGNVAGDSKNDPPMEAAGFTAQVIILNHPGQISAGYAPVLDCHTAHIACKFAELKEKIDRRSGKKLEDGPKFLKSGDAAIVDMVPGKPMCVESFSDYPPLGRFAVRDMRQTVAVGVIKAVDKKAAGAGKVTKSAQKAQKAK
Kind of data set: Guanine nucleotide exchange assay on eEF1A (eEF1A-[3H]GDP dissociation). It is filed as biochemical, rabbit. The protocol:
Guanine nucleotide exchange assay. Rabbit liver eEF1A was purified as described in Shalak et al., Ukr Biokhim Zh, 69: 104-9 (1997), incorporated herein by reference. The guanine nucleotide exchange on eEF1A was monitored as described in Negrutskii et al., J Biol Chem, 274: 4545-50 (1999) and Bec et al., J Biol Chem, 269: 2086-92 (1994), both of which are incorporated herein by reference. The eEF1A-[^3H]GDP complex was prepared following incubation of 4 μM eEF1A with 4 μM [^3H]GDP (Amersham Biosciences; 1500 Ci/mol) in 80 μl of 45 mM Tris-HCl (pH 7.5) containing 0.5 mM DTT, 10 mM magnesium acetate, 100 mM NH4Cl, 1 mg/ml bovine serum albumin and 25% glycerol for 5 minutes at 37° C. The reaction mixture was placed on ice and diluted by addition of 640 μl of ice-cold exchange buffer [20 mM Tris-HCl (pH 7.5), 10 mM magnesium acetate, 50 mM NH4Cl, 10% glycerol]. The exchange reaction was conducted at 0° C. after addition of 160 μl of exchange buffer containing nucleotide and specified exchange factors. Aliquots of 100 μl were taken at times indicated and immediately filtered through nitrocellulose filters (Millipore; pore size 0.45 μm). Filters were washed 3 times with 1 ml of ice-cold washing buffer [20 mM Tris-HCl (pH 7.5), 10 mM magnesium acetate, 100 mM NH4Cl, 0.1 mg/ml bovine serum albumin], dried and counted in a liquid scintillator.
The functional relevance of a TCTP and eEF1A association was further investigated by monitoring the effects of TCTP on the rate of dissociation of GDP from the eEF1A-[^3H]-GDP complex. Whether TCTP preferentially binds to the GDP-bound form of the factor (and pushes the equilibrium toward the formation of eEF1A-GDP) or associates with the nucleotide free form of eEF1A (and displaces the exchange reaction toward the formation of eEF1A) was determined.
This corresponded to a rate of 0.082±0.004 pmol GDP exchanged/min/pmol of eEF1A. In the absence of free GDP in the incubation mixture, the eEF1A-[^3H]-GDP complex remained stable over a period of 40 minutes. Increasing amounts of TCTP (0.2 μM to 3.0 μM) were added in the exchange assay and the rate of dissociation of the eEF1A-[^3H]-GDP complex was monitored in the presence of 150 μM free GDP (FIG. 15A).

Sequence of Arf1-GAP / [D17]ARF1 (P84077 18-181 limits assumed): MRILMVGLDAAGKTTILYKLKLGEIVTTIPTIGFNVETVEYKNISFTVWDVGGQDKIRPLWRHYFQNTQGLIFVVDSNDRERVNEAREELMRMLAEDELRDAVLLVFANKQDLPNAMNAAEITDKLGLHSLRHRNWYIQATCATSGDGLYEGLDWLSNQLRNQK

Consider “TCTP: purified recombinant TCTP protein, bacterially expressed, GST moiety removed”, for which, in data set [1], the “polymerization of purified tubulin” value is on record as “did not appear to affect the polymerization rate”. Moreover, in data set [2], the “initial rate of GDP exchange in the presence of eEF1Bαγ” value is 0.96 min⁻¹. The “initial rate of GDP exchange in the presence of eEF1Bβ” value in data set [3] is 0.294 min^−1 per pmol of eEF1Bβ. In data set [4], the “GTP-GDP exchange catalyzed by Arf1-GAP” value is recorded as “inhibits”. The “guanine nucleotide exchange activity” value in data set [5] is listed as “devoid of exchange activity”. Also, the “rate of GDP dissociation” value is 0.026±0.003 pmol GDP exchanged/min/pmol of eEF1A in data set [5] (3 μM TCTP, 150 μM free GDP) and 0.024±0.003 pmol GDP exchanged/min/pmol of eEF1A in data set [5] (with TCTP, unlabeled free GTP (150 μM) instead of GDP). In addition, the Kd in data set [5] (150 μM free GDP, TCTP 0.2 μM to 3.0 μM, saturation kinetics, read-out: apparent dissociation constant Kd (inhibition of GDP exchange on eEF1A)) came to 1.2 ± 0.2 µM; in data set [5] (unlabeled free GTP (150 μM) in the exchange reaction, read-out: apparent Kd of TCTP for the GDP form of eEF1A) it was 1.6 ± 0.3 µM. Also, the “binding of nucleotides by the protein itself” value in data set [5] (TCTP by itself) was “did not bind nucleotides”.
